Consider two substances from PMC10766600.

Assay [1] addresses bacteriophage T5 capsid-like particles (T5 CLPs) (bacteriophage T5). In words: cryo-EM structure; pNO-decorated CLPs, 200 kV Glacios, icosahedral (I4) reconstruction from 10,449 particles, 5.8 Å.
The target is the same in assay [2].

pNO: N-terminal capsid-binding domain pN of pb10 fused at its C-terminal end with ovalbumin, sequence (Q6QGD6 whole entry, the tested form may be a part): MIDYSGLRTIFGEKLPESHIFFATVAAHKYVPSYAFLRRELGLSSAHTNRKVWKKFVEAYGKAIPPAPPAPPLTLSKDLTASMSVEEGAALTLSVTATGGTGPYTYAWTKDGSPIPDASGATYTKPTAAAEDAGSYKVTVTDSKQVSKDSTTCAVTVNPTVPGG
pO: full-length pb10 fused at its C-terminal end with ovalbumin, sequence (Q6QGD6 whole entry, the tested form may be a part): as above

Take “pNO: N-terminal capsid-binding domain pN of pb10 fused at its C-terminal end with ovalbumin (from UniProt Q6QGD6 1-73)”: in assay [1], the stoichiometry N (copies per capsid) was 120. The substance also yielded an anti-Ova IgG (ELISA) in sera of C57BL/6 mice after a single subcutaneous injection of CLP-bound pNO against pNO alone, days 14 to 192 post-injection in assay [2] of 1000 fold.
“pO: full-length pb10 fused at its C-terminal end with ovalbumin (from UniProt Q6QGD6 1-164)” had an anti-Ova IgG (ELISA) in sera of C57BL/6 mice after a single subcutaneous injection of CLP-bound pO against pO alone, days 14 to 192 post-injection in assay [2] of 1000 fold.
